In patent US5773574A, “Polypeptides for promoting cell attachment” (The Scripps Research Institute, priority 1991, dated 1998):
Blank lines part the entries; values can stand above or below the molecule they belong to. Residues, ends and D or L forms follow the SMILES beside them.

How the values were obtained:
GPIIb-IIIa [1] = target: T1, GPIIb-IIIa (Homo sapiens, UniProt P05106+P08514); test: Interaction of 125I-labelled ligands with GPIIb-IIIa coated microtiter wells (Table 3); type: binding; settings: 125I-labelled ligand
T1 construct: GPIIb-IIIa from platelet lysates is purified by the following procedure; from tissue
Description: Incubate the GPIIb-IIIa with plate for 1 hour at room temperature, then dump unbound and block with 150 ul of 5% BSA in the same buffer for 1 hour at room temperature. Wash three times with 150 μl of Tyrode's buffer with 5 mM HEPES, 1 mM MgCl2 1 mg/ml dextrose, 1 mg/ml BSA. Add 50 μl of ^125 I fusion protein (125 mg/ml) at varied concentration (4×10^-7 to 1×10^-10 M). Incubate 4 hours to overnight at room temperature (with lead shield).
Carefully remove radioactive samples and wash 3 times with 150 μl Tyrodes with 5 mM HEPES, 1 mM MgCl2, 1 mg/ml dextrose, 1 mg/ml BSA. Count with a Gamma Counter and elute by boiling in SDS-PAGE loading Buffer.
To determine if the insert coded polypeptide containing fibronectin residues 1255-1456 bound GPIIb-IIIa, the capacity of microtiter wells coated with purified GPIIb-IIIa to bind the radiolabelled fusion-protein preparation was ascertained (Table 3). In addition, the radiolabelled material bound to the insolubilized GPIIb-IIIa was recovered and analyzed by SDS-PAGE followed by radioautography. […] The isolated protein products were a mixture of insert coded polypeptides containing fusion protein and maltose binding protein breakdown products. only those bands containing the insert-coded polypeptide bound to the insolubilized GPIIb-IIIa and that binding was inhibitable by either EDTA or the monoclonal antibody FnI-16.

[2] = target: GPIIb-IIIa (Homo sapiens (Human)) (UniProt P08514); test: competition with 10 nM biotinylated Fn on GPIIb-IIIa-coated wells
[3] = target: GPIIb-IIIa (Homo sapiens (Human)) (UniProt P08514); test: 125I-labelled ligand on GPIIb-IIIa-coated wells; no inhibitor
[4] = target: GPIIb-IIIa (Homo sapiens (Human)) (UniProt P08514); test: 125I-labelled ligand on GPIIb-IIIa-coated wells; inhibitor Mab 16.12
[5] = target: GPIIb-IIIa (Homo sapiens (Human)) (UniProt P08514); test: 10 nM biotinylated Fn on GPIIb-IIIa-coated wells, avidin-HRP detection
[6] = target: GPIIb-IIIa (Homo sapiens (Human)) (UniProt P08514); test: 125I-labelled ligand on GPIIb-IIIa-coated wells; inhibitor 2 mM GDTA (so in the source)
GPIIb-IIIa [7] = target: T1, GPIIb-IIIa; test: Competition assay: biotinylated Fn binding to purified GPIIb-IIIa in presence of synthetic polypeptides; settings: 250 μM polypeptide, 10 nM biotinylated Fn; FIG. 9
Description: (SEQ ID NO 11) as shown by the line with closed squares. […] The competition assays were performed in microtiter wells of a 96-well plate as described in Example 9b(1). Briefly, microtiter wells coated with purified GPIIb-IIIa receptor were maintained with 10 nM biotinylated Fn for 2 hours at room temperature in the presence of varying concentrations of D-11-T and RGDS.
The competition assay was performed by first admixing into individual wells of a 96 well microtiter plate (Immunlon, Dynatech) 10 μg/ml of purified GPIIb-IIIa, prepared in Example 1, diluted in HEPES-saline buffer, pH 7.4, consisting of 10 mM HEPES, 150 mM NaCl, 1 mM CaCl2 and 1 mM MgCl2. […]
The Fn-peptide admixtures were maintained in GPIIb-IIIa-coated wells for 2 hours at room temperature to allow the biotinylated Fn to bind to the receptor. Following this maintenance period, the reacted wells were washed as described above and the amount of biotinylated Fn bound to GPIIb-IIIa was determined by admixing 0.1 ml avidin bound to biotinylated horseradish peroxidase H (Hrp) (Sigma, St. Louis, Mo.) at a 1:2000 dilution to form an avidin-biotinylated Fn admixture. […] After maintaining the color developing-reaction admixture for 10 minutes at 20° C., the reaction was stopped with the admixture of 2N H2 SO4, and the stopped reactions were measured for absorbance as described in Example 3a. […]

- Counts ×10^-3 (GPIIb-IIIa [1]; inhibitor 2 mM EDTA): 8 Counts ×10^-3
- Counts ×10^-3 (GPIIb-IIIa [1]; inhibitor Mab 16.12): 12 Counts ×10^-3
- Counts ×10^-3 (GPIIb-IIIa [1]; no inhibitor): 42 Counts ×10^-3
Molecule: Fibronectin: intact Fn isolated from fresh human citrated plasma on gelatin-sepharose

- percent inhibition of control binding at 200 µM polypeptide [2]: 35 to 40%
Molecule: polypeptide DRVPHSR

- Counts ×10^-3 (counts ×10^-3) [3]: 42
- Counts ×10^-3 (counts ×10^-3) [4]: 12
- absorbance at 490 nm (absorbance at 490 nm) [5]: 2.7
- Counts ×10^-3 (counts ×10^-3) [6]: 8
Molecule: fibronectin (Fn), intact, isolated from fresh human citrated plasma (from UniProt P02751) (ligand)

Molecule: CC[C@H](C)[C@H](NC(=O)[C@H](CO)NC(=O)[C@H](CC(N)=O)NC(=O)[C@H](CCCNC(=N)N)NC(=O)[C@H](CO)NC(=O)[C@H](Cc1c[nH]cn1)NC(=O)[C@@H]1CCCN1C(=O)[C@@H](NC(=O)[C@H](CCCNC(=N)N)NC(=O)[C@@H](N)CC(=O)O)C(C)C)C(=O)N[C@H](C(=O)O)[C@@H](C)O [D-11-T] (H-DRVPHSRNSIT-OH)
- inhibition of binding of biotinylated Fn to GPIIb-IIIa (GPIIb-IIIa [7]): greater than 80%
